In patent publication US20120071422A1 (MEDICAL DIAGNOSTIC LABORATORIES, published 2012):

B3: recombinant human IL-23 cytokine (p19 + p40) (ligand)
chain 1: RAVPGGSSPAWTQCQQLSQKLCTLAWSAHPLVGHMDLREEGDEETTNDVPHIQCGDGCDPQGLRDNSQFCLQRIHQGLIFYEKLLGSDIFTGEPSLLPDSPVGQLHASLLGLSQLLQPEGHHWETQQIPSLSPSQPWQRLLLRFKILRSLQAFVAVAARVFAHGAATLSP
chain 2: IWELKKDVYVVELDWYPDAPGEMVVLTCDTPEEDGITWTLDQSSEVLGSGKTLTIQVKEFGDAGQYTCHKGGEVLSHSLLLLHKKEDGIWSTDILKDQKEPKNKTFLRCEAKNYSGRFTCWWLTTISTDLTFSVKSSRGSSDPQGVTCGAATLSAERVRGDNKEYEYSVECQEDSACPAAEESLPIEVMVDAVHKLKYENYTSSFFIRDIIKPDPPKNLQLKPLKNSRQVEVSWEYPDTWSTPHSYFSLTFCVQVQGKSKREKKDRVFTDKTSATVICRKNASISVRAQDRYYSSSWSEWASVPCS
notes: Disulfide-linked heterodimer

Key:
[1] = molecular target: B3; experiment: immunoprecipitation and competitive ELISA
Procedure: We developed a competitive ELISA to further examine the ability of the deletion protein mutants (i.e., Δ9, Δ8,9 and 1-250 mutant) to compete (i.e., interfere) the binding of IL-23 cytokine to the full-length extracellular domain of IL-23Rα (See, “Materials & Methods”). Recombinant IL-23Rα-Fc fusion protein from R&D (2 μg/ml) was coated on the ELISA plate. IL-23 cytokine (50 ng) was added in the absence or presence of the deletion protein mutants as competitors.
Recombinant human IL-23R-Fc (2 μg/ml) (from R&D) was coated onto plates as a capture reagent. Biotinylated anti-p40 antibody (1:250) (which specifically recognizes the p40 subunit of IL-23) was used as a detection antibody. Streptavidin—horseradish peroxidase (HRP) (1:500) was added to detect the biotinlyated anti-p40 antibody. The peroxidase activity (representing the level of IL-23 captured onto plates) was measured by addition of a tetramethylbenzidine (TMB) substrate (100 μl/well). The color intensity was directly proportion to the amount of the bound IL-23 protein. The color was measured at optical density (OD) 450 nm using a microtiter plate reader.

[2] = molecular target: B3; experiment: anti-Flag immunoprecipitation, anti-p40 immunoblot
Procedure: 200 ng of human IL-23 cytokine was added to the immunoprecipitation reaction. The presence of IL-23 in the precipitate was examined by immunoblot using anti-hIL-12/23 p40 antibody.
In addition, we also prepared two (2) more IL-23Rα deletion mutants; namely, 1-250 mutant and 1-200 mutant. These deletion mutants were generated by PCR (See, FIG. 18). Together, all of the four (4) IL-23Rα protein variants (FIG. 18) were tagged with Flag sequence at the C-terminus. […] The culture media were collected 48 hours post-transfection. These four (4) deletion proteins were immunoprecipitated using anti-Flag affinity gel. 200 ng of IL-23 cytokine was added to the immunoprecipitation assay. […] We speculate that the 1-200 mutant may be improperly folded or missing a critical domain that is essential for binding to IL-23 cytokine. […]
Culture medium from Δ9 transfection experiments was concentrated using Amicon ultra centrifugal filter 30K (Millipore), then Δ9 protein was affinity purified using anti-FLAG M2 affinity gel (Sigma). […] The eluted product was analysed by immunoblot using anti-human p40 or anti-human IL-23R to detect the common p40 subunit of IL-12/IL-23 or Δ9, respectively. […] After extensive washing, the eluted product was analysed using anti-HIS (Invitrogen, Carlsbad Calif.), anti-human p40 or anti-human IL-23R(R&D Systems) to detect soluble IL-12Rβ1, the p40 subunit of IL-23 or Δ9, respectively.

[3] = molecular target: T1, recombinant IL-12 (p35 + p40) (UniProt P29459 23-219; P29460 23-328); experiment: anti-Flag immunoprecipitation, anti-hIL-12/23 p40 immunoblot
T1 sequence (looked up) 1: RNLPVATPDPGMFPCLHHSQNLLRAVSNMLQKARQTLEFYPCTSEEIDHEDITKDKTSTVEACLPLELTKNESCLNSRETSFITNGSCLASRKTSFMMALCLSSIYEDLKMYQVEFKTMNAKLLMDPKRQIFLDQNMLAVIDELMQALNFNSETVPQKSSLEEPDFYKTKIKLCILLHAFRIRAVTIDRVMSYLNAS
T1 sequence (looked up) 2: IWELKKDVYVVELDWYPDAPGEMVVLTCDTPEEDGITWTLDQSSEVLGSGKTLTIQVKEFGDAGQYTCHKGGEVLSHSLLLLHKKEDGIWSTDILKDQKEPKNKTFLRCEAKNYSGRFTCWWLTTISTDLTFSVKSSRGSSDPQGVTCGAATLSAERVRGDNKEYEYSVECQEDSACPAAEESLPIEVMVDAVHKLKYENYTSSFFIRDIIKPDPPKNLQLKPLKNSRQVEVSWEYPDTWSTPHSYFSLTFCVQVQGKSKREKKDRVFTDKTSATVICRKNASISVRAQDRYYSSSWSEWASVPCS
Procedure: FIG. 17 depicts the binding specificity of the recombinant Δ9 protein. Immunoprecipitation experiments were performed using anti-Flag M2 affinity gel. Immunoblot experiment was performed to detect IL-12 and IL-23 in the precipitates using the anti-hIL-12/23 p40 (i.e., anti-human IL-12/23 p40). The recombinant Δ9 protein in the precipitates was detected by anti-human IL-23R. Only IL-23 but not IL-12 was detected in the reaction containing the recombinant Δ9 protein.
Culture medium from Δ9 transfection experiments was concentrated using Amicon ultra centrifugal filter 30K (Millipore), then Δ9 protein was affinity purified using anti-FLAG M2 affinity gel (Sigma). The immuno-complex was precipitated, washed and resuspended in PBS. 200 ng of either IL-12 or IL-23 was added to the suspension and incubated at 4° C. for 2 hours. […] The eluted product was analysed by immunoblot using anti-human p40 or anti-human IL-23R to detect the common p40 subunit of IL-12/IL-23 or Δ9, respectively. […] After extensive washing, the eluted product was analysed using anti-HIS (Invitrogen, Carlsbad Calif.), anti-human p40 or anti-human IL-23R(R&D Systems) to detect soluble IL-12Rβ1, the p40 subunit of IL-23 or Δ9, respectively. […] Immuno-precipitation was performed and analysed by immunoblot, probing with anti-hIL-12/23p40.

[4] = molecular target: T2, recombinant human His-tagged soluble IL-12Rβ1 (human, UniProt P42701 24-545, limits assumed); experiment: anti-Flag immunoprecipitation without IL-23, anti-His immunoblot
T2 construct: Bought (R&D Systems); also called sIL-12Rβ1; shIL-12Rβ1; not shown: His tag
Text: On the cell surface, human IL-23Rα combines with human IL-12Rβ1 to form the heterodimeric IL-23 receptor. Human IL12Rβ1 also partners with human IL12Rβ2 to form the cell-surface IL-12 receptor. We wanted to know whether Δ9 could link to human IL-12Rβ1 via IL-23, or indeed bind it directly.
Culture medium from Δ9 transfection experiments was concentrated using Amicon ultra centrifugal filter 30K (Millipore), then Δ9 protein was affinity purified using anti-FLAG M2 affinity gel (Sigma). The immuno-complex was precipitated, washed and resuspended in PBS. 200 ng of either IL-12 or IL-23 was added to the suspension and incubated at 4° C. for 2 hours. Reprecipitated FLAG-tagged Δ9 immuno-complex was again precipitated and eluted with excess FLAG peptide. The eluted product was analysed by immunoblot using anti-human p40 or anti-human IL-23R to detect the common p40 subunit of IL-12/IL-23 or Δ9, respectively. […] After extensive washing, the eluted product was analysed using anti-HIS (Invitrogen, Carlsbad Calif.), anti-human p40 or anti-human IL-23R(R&D Systems) to detect soluble IL-12Rβ1, the p40 subunit of IL-23 or Δ9, respectively. […] Immuno-precipitation was performed and analysed by immunoblot, probing with anti-hIL-12/23p40.

[5] = molecular target: T2, recombinant human His-tagged soluble …; experiment: anti-Flag immunoprecipitation of Δ9 with IL-23 (200 ng) and sIL-12Rβ1 (1 µg); IL-23 bound to Δ9
Procedure: Human IL12Rβ1 also partners with human IL12Rβ2 to form the cell-surface IL-12 receptor. We wanted to know whether Δ9 could link to human IL-12Rβ1 via IL-23, or indeed bind it directly.
Culture medium from Δ9 transfection experiments was concentrated using Amicon ultra centrifugal filter 30K (Millipore), then Δ9 protein was affinity purified using anti-FLAG M2 affinity gel (Sigma). The immuno-complex was precipitated, washed and resuspended in PBS. 200 ng of either IL-12 or IL-23 was added to the suspension and incubated at 4° C. for 2 hours. Reprecipitated FLAG-tagged Δ9 immuno-complex was again precipitated and eluted with excess FLAG peptide. The eluted product was analysed by immunoblot using anti-human p40 or anti-human IL-23R to detect the common p40 subunit of IL-12/IL-23 or Δ9, respectively. […] After extensive washing, the eluted product was analysed using anti-HIS (Invitrogen, Carlsbad Calif.), anti-human p40 or anti-human IL-23R(R&D Systems) to detect soluble IL-12Rβ1, the p40 subunit of IL-23 or Δ9, respectively. To examine the N-glycosylation modification on soluble human IL-23Rα, purified Δ9 was treated with N-Glycosidase F (PNGase F) at 37° C. for 1 hour followed by immunoblotting using anti-human IL-23R. […] Immuno-precipitation was performed and analysed by immunoblot, probing with anti-hIL-12/23p40.

B1: recombinant Δ8,9 protein (soluble truncated human IL-23Rα, exon 8 and 9 deletion splice variant), C-terminal Flag tag (receptor)
chain: GITNINCSGHIWVEPATIFKMGMNISIYCQAAIKNCQPRKLHFYKNGIKERFQITRINKTTARLWYKNFLEPHASMYCTAECPKHFQETLICGKDISSGYPPDIPDEVTCVIYEYSGNMTCTWNAGKLTYIDTKYVVHVKSLETEEEQQYLTSSYINISTDSLQGGKKYLVWVQAANALGMEESKQLQIHLDDIVIPSAAVISRAETINATVPKTIIYWDSQTTIEKVSCEMRYKATTNQTWNVKEFDTNFTYVQQSEFYLEPNIKYVFQVRCQETGKRYWQPWSSLFFHKTPETGLKEGSYC
notes: not shown: C-terminal Flag tag
binding result [1]: binds

B2: recombinant Δ9 protein (soluble truncated human IL-23Rα, exon 9 deletion splice variant), C-terminal Flag tag (receptor)
chain: GITNINCSGHIWVEPATIFKMGMNISIYCQAAIKNCQPRKLHFYKNGIKERFQITRINKTTARLWYKNFLEPHASMYCTAECPKHFQETLICGKDISSGYPPDIPDEVTCVIYEYSGNMTCTWNAGKLTYIDTKYVVHVKSLETEEEQQYLTSSYINISTDSLQGGKKYLVWVQAANALGMEESKQLQIHLDDIVIPSAAVISRAETINATVPKTIIYWDSQTTIEKVSCEMRYKATTNQTWNVKEFDTNFTYVQQSEFYLEPNIKYVFQVRCQETGKRYWQPWSSLFFHKTPETVPQVTSKAFQHDTWNSGLTVASISTGHLTSGLKEGSYC
modifications: N-glycosylated (sites not given)
notes: Said to be a monomer; also called Δ9 variant; Δ9 IL-23Rα; not shown: C-terminal Flag tag
binding result [2]: binds
binding result [3]: no binding (tested: 200 ng)
binding result [4]: no binding (tested: 1 µg)

B3
binding result [5]: binds
